The source of these data is patent US6342348.

For assay [1], the target named is T1, rat NTNRα, endogenous, on embryonic rat spinal motoneurons (rat).
T1 sequence (chain, GPI-linked): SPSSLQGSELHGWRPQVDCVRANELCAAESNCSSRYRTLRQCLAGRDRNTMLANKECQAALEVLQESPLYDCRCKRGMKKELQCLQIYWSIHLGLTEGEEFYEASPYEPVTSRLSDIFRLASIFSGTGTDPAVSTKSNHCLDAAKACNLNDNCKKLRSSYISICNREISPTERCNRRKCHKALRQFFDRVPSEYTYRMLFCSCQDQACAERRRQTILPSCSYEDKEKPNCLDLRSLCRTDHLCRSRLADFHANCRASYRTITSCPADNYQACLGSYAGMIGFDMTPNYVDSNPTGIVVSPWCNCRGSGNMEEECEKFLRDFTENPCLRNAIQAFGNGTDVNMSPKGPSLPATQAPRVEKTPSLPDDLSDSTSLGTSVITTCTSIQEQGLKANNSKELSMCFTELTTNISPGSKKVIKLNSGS
Nature of the assay: cell-based or functional assay.

For assay [2], the target named is T2, recombinant soluble rat GDNFRα (rat) (UniProt Q62997).
T2 sequence (looked up): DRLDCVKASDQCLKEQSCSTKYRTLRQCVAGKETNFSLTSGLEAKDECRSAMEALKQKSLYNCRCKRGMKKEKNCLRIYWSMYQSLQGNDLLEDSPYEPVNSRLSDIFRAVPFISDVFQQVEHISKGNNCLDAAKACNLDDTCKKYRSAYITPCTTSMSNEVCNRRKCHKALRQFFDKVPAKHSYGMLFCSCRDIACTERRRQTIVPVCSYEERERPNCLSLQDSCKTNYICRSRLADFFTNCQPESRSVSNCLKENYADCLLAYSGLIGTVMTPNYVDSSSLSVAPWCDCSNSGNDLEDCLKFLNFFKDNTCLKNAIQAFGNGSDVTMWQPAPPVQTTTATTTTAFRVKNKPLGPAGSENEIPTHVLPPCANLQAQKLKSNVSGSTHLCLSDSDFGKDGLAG
Nature of the assay: binding experiments with biotinylated ligand (format not described).

The target in assay [3] is T2, recombinant soluble rat GDNFRα (rat). Put plainly: displacement of labelled rGDNF from soluble GDNFRα by unlabeled NTN (10 nm).
The target in assay [4] is rat NTNRα-IgG fusion protein (soluble rNTNRα) (rat). Nature of the assay: binding experiments with biotinylated ligand (format not described); 'and vice versa'.

B1: Neurturin (NTN), species not stated (ligand, UniProt Q99748 96-197, looked up, species assumed)
Neurturin: ARLGARPCGLRELEVRVSELGLGYASDETVLFRYCAGACEAAARVYDLGLRRLRQRRRLRRERVRAQPCCRPTAYEDEVSFLDAHSRYHTVHELSARECACV
What is called Kd is the constant that tells how readily two partners part at equilibrium. Take B1: the decrease in survival response of embryonic rat spinal motoneurons to NTN after PIPLC treatment in assay [1] lay within 50 to 90%. Besides, the dissociation constant (Kd) in assay [2] was more than 1000 µM; in assay [3], more than 0.001 µM.

B2: GDNF, species not stated (ligand, UniProt P39905 78-211, looked up, species assumed)
Glial cell line-derived neurotrophic factor: SPDKQMAVLPRRERNRQAAAANPENSRGKGRRGQRGKNRGCVLTAIHLNVTDLGLGYETKEELIFRYCSGSCDAAETTYDKILKNLSRNRRLVSDKVGQACCRPIAFDDDLSFLDDNLVYHILRKHSAKRCGCI
In the case of B2, in assay [4], the dissociation constant (Kd) is more than 1000 µM.
